Molecular target: the molecule itself
Assay: cryo-EM structure; FAS (0.3 mg/ml, buffer 100 mM sodium phosphate pH 6.5) incubated with 1 mM NADPH and 1 mM malonyl-CoA for 5 min, on hydrophilized graphene-coated Quantifoil grids; D3 symmetry applied; 3.1 Å

B1: yeast fatty acid synthase subunit α (FAS2) (enzyme, S. cerevisiae)
chain: MKPEVEQELAHILLTELLAYQFASPVRWIETQDVFLKDFNTERVVEIGPSPTLAGMAQRTLKNKYESYDAALSLHREILCYSKDAKEIYYTPDPSELAAKEEPAKEEAPAPTPAASAPAPAAAAPAPVAAAAPAAAAAEIADEPVKASLLLHVLVAHKLKKSLDSIPMSKTIKDLVGGKSTVQNEILGDLGKEFGTTPEKPEETPLEELAETFQDTFSGALGKQSSSLLSRLISSKMPGGFTITVARKYLQTRWGLPSGRQDGVLLVALSNEPAARLGSEADAKAFLDSMAQKYASIVGVDLSSAASASGAAGAGAAAGAAMIDAGALEEITKDHKVLARQQLQVLARYLKMDLDNGERKFLKEKDTVAELQAQLDYLNAELGEFFVNGVATSFSRKKARTFDSSWNWAKQSLLSLYFEIIHGVLKNVDREVVSEAINIMNRSNDALIKFMEYHISNTDETKGENYQLVKTLGEQLIENCKQVLDVDPVYKDVAKPTGPKTAIDKNGNITYSEEPREKVRKLSQYVQEMALGGPITKESQPTIEEDLTRVYKAISAQADKQDISSSTRVEFEKLYSDLMKFLESSKEIDPSQTTQLAGMDVEDALDKDSTKEVASLPNKSTISKTVSSTIPRETIPFLHLRKKTPAGDWKYDRQLSSLFLDGLEKAAFNGVTFKDKYVLITGAGKGSIGAEVLQGLLQGGAKVVVTTSRFSKQVTDYYQSIYAKYGAKGSTLIVVPFNQGSKQDVEALIEFIYDTEKNGGLGWDLDAIIPFAAIPEQGIELEHIDSKSEFAHRIMLTNILRMMGCVKKQKSARGIETRPAQVILPMSPNHGTFGGDGMYSESKLSLETLFNRWHSESWANQLTVCGAIIGWTRGTGLMSANNIIAEGIEKMGVRTFSQKEMAFNLLGLLTPEVVELCQKSPVMADLNGGLQFVPELKEFTAKLRKELVETSEVRKAVSIETALEHKVVNGNSADAAYAQVEIQPRANIQLDFPELKPYKQVKQIAPAELEGLLDLERVIVVTGFAEVGPWGSARTRWEMEAFGEFSLEGCVEMAWIMGFISYHNGNLKGRPYTGWVDSKTKEPVDDKDVKAKYETSILEHSGIRLIEPELFNGYNPEKKEMIQEVIVEEDLEPFEASKETAEQFKHQHGDKVDIFEIPETGEYSVKLLKGATLYIPKALRFDRLVAGQIPTGWNAKTYGISDDIISQVDPITLFVLVSVVEAFIASGITDPYEMYKYVHVSEVGNCSGSGMGGVSALRGMFKDRFKDEPVQNDILQESFINTMSAWVNMLLISSSGPIKTPVGACATSVESVDIGVETILSGKARICIVGGYDDFQEEGSFEFGNMKATSNTLEEFEHGRTPAEMSRPATTTRNGFMEAQGAGIQIIMQADLALKMGVPIYGIVAMAATATDKIGRSVPAPGKGILTTAREHHSSVKYASPNLNMKYRKRQLVTREAQIKDWVENELEALKLEAEEIPSEDQNEFLLERTREIHNEAESQLRAAQQQWGNDFYKRDPRIAPLRGALATYGLTIDDLGVASFHGTSTKANDKNESATINEMMKHLGRSEGNPVIGVFQKFLTGHPKGAAGAWMMNGALQILNSGIIPGNRNADNVDKILEQFEYVLYPSKTLKTDGVRAVSITSFGFGQKGGQAIVVHPDYLYGAITEDRYNEYVAKVSAREKSAYKFFHNGMIYNKLFVSKEHAPYTDELEEDVYLDPLARVSKDKKSGSLTFNSKNIQSKDSYINANTIETAKMIENMTKEKVSNGGVGVDVELITSINVENDTFIERNFTPQEIEYCSAQPSVQSSFAGTWSAKEAVFKSLGVKSLGGGAALKDIEIVRVNKNAPAVELHGNAKKAAEEAGVTDVKVSISHDDLQAVAVAVSTKK
modifications: additional density at Ser1440 suggesting phosphorylation
notes: fatty acid synthase subunit α, S. cerevisiae, encoded by FAS2 on a pRS shuttle vector; holds the PPT domain at its C-terminus; this follows from DM4 holding the PPT domain, which it places in subunit α
- binding result: binds
